Experimental data: patent US20250122277A1 (Novartis, published 2025)

Legend:
rec marmoset IL-17 [1] = biological target: T1, rec marmoset IL-17 (marmoset, UniProt A0ACM8QD00 24-153); assay: SPR (BIAcore 2000), 20 nM IL-17, run 2
T1 sequence: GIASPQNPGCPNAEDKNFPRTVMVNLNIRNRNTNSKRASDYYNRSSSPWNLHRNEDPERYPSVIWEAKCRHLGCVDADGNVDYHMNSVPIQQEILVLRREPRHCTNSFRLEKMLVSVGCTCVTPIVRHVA
From the text: (§1) Determination of kinetic binding parameters and levels of crossreactivity are done by surface plasmon resonance measurements using the optical biosensor BIAcore® 2000 (BIAcore AB, Upsalla, Sweden, see Lit. HS 1,2 for details). This technology allows the label-free determination the microscopic rate constants for binding (kₒₙ) and dissociation (koff) of a ligand to a receptor. It is therefore especially suited for characterizing the antibody-antigen interactions. […] Covalent binding of Fcγ capture antibody is done with the ‘Amine coupling kit’ provided by BIAcore (BIAcore, Cat. No. BR-1000-50). […] As a guideline, 1000 RUs correspond to a mass transfer of 1 ng/mm². […] The results are compared to the protocol described in Table 9 (see below).
(§2) Two independent runs testing 6 IL-17 concentrations in each run are performed. Concentrations for human IL-17 are 2, 4, 8, 12, 16, 20 nM and 10, 20, 30, 40, 50, 60 nM for all other species. Complete data analysis yields n=12 individual measurements for each IL-17 species. The KD as well as SEM is reported.

[2] = biological target: T2, rec cynomolgous monkey IL-17 (cynomolgous monkey); assay: SPR (BIAcore 2000), 20 nM IL-17, run 2
From the text: as §1, §2

rec rhesus monkey IL-17 [3] = biological target: T3, rec rhesus monkey IL-17 (rhesus monkey, UniProt F6T3G5 24-155); assay: SPR (BIAcore 2000), 20 nM IL-17, run 2
T3 sequence: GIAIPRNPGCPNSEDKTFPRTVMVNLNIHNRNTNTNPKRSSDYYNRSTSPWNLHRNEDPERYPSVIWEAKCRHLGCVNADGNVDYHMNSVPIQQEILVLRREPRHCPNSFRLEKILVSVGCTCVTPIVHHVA
From the text: as §1, §2

rec marmoset IL-17 [4] = biological target: T1, rec marmoset IL-17; assay: SPR (BIAcore 2000), 10 nM IL-17, run 1
From the text: as §1, §2

[5] = biological target: T2, rec cynomolgous monkey IL-17; assay: SPR (BIAcore 2000), 10 nM IL-17, run 1
From the text: as §1, §2

rec rhesus monkey IL-17 [6] = biological target: T3, rec rhesus monkey IL-17; assay: SPR (BIAcore 2000), 10 nM IL-17, run 1
From the text: as §1, §2

rec marmoset IL-17 [7] = biological target: T1, rec marmoset IL-17; assay: SPR (BIAcore 2000), 10 nM IL-17, run 2
From the text: as §1, §2

[8] = biological target: T2, rec cynomolgous monkey IL-17; assay: SPR (BIAcore 2000), 10 nM IL-17, run 2
From the text: as §1, §2

rec rhesus monkey IL-17 [9] = biological target: T3, rec rhesus monkey IL-17; assay: SPR (BIAcore 2000), 10 nM IL-17, run 2
From the text: as §1, §2

[10] = biological target: T2, rec cynomolgous monkey IL-17; assay: SPR (BIAcore 2000), 5 nM IL-17, run 2
From the text: as §1
(§3) Two independent runs testing 6 IL-17 concentrations in each run are performed. […] Complete data analysis yields n=12 individual measurements for each IL-17 species. The KD as well as SEM is reported.

[11] = biological target: T2, rec cynomolgous monkey IL-17; assay: SPR (BIAcore 2000), 5 nM IL-17, run 1
From the text: as §1, §3

rec marmoset IL-17 [12] = biological target: T1, rec marmoset IL-17; assay: SPR (BIAcore 2000), 30 nM IL-17, run 2
From the text: as §1, §2

[13] = biological target: T2, rec cynomolgous monkey IL-17; assay: SPR (BIAcore 2000), 30 nM IL-17, run 2
From the text: as §1, §2

rec rhesus monkey IL-17 [14] = biological target: T3, rec rhesus monkey IL-17; assay: SPR (BIAcore 2000), 30 nM IL-17, run 2
From the text: as §1, §2

[15] = biological target: T2, rec cynomolgous monkey IL-17; assay: SPR (BIAcore 2000), mean (printed n = 10)
From the text: as §1, §2

rec marmoset IL-17 [16] = biological target: T1, rec marmoset IL-17; assay: SPR (BIAcore 2000), 40 nM IL-17, run 2
From the text: as §1, §2

rec rhesus monkey IL-17 [17] = biological target: T3, rec rhesus monkey IL-17; assay: SPR (BIAcore 2000), 40 nM IL-17, run 2
From the text: as §1, §2

rec marmoset IL-17 [18] = biological target: T1, rec marmoset IL-17; assay: SPR (BIAcore 2000), 50 nM IL-17, run 1
From the text: as §1, §2

rec rhesus monkey IL-17 [19] = biological target: T3, rec rhesus monkey IL-17; assay: SPR (BIAcore 2000), 50 nM IL-17, run 1
From the text: as §1, §2

rec marmoset IL-17 [20] = biological target: T1, rec marmoset IL-17; assay: SPR (BIAcore 2000), 40 nM IL-17, run 1
From the text: as §1, §2

rec rhesus monkey IL-17 [21] = biological target: T3, rec rhesus monkey IL-17; assay: SPR (BIAcore 2000), 40 nM IL-17, run 1
From the text: as §1, §2

rec rhesus monkey IL-17 [22] = biological target: T3, rec rhesus monkey IL-17; assay: SPR (BIAcore 2000), 60 nM IL-17, run 1
From the text: as §1, §2

[23] = biological target: T2, rec cynomolgous monkey IL-17; assay: SPR (BIAcore 2000), 15 nM IL-17, run 2
From the text: as §1, §3

rec marmoset IL-17 [24] = biological target: T1, rec marmoset IL-17; assay: SPR (BIAcore 2000), 30 nM IL-17, run 1
From the text: as §1, §2

[25] = biological target: T2, rec cynomolgous monkey IL-17; assay: SPR (BIAcore 2000), 30 nM IL-17, run 1
From the text: as §1, §2

rec rhesus monkey IL-17 [26] = biological target: T3, rec rhesus monkey IL-17; assay: SPR (BIAcore 2000), 30 nM IL-17, run 1
From the text: as §1, §2

[27] = biological target: T2, rec cynomolgous monkey IL-17; assay: SPR (BIAcore 2000), 25 nM IL-17, run 1
From the text: as §1, §3

rec rhesus monkey IL-17 [28] = biological target: T3, rec rhesus monkey IL-17; assay: SPR (BIAcore 2000), 60 nM IL-17, run 2
From the text: as §1, §2

rec marmoset IL-17 [29] = biological target: T1, rec marmoset IL-17; assay: SPR (BIAcore 2000), mean n = 10
From the text: as §1, §2

[30] = biological target: T2, rec cynomolgous monkey IL-17; assay: SPR (BIAcore 2000), 25 nM IL-17, run 2
From the text: as §1, §3

rec marmoset IL-17 [31] = biological target: T1, rec marmoset IL-17; assay: SPR (BIAcore 2000), 50 nM IL-17, run 2
From the text: as §1, §2

[32] = biological target: T2, rec cynomolgous monkey IL-17; assay: SPR (BIAcore 2000), mean of run 1 + 2
From the text: as §1, §2

rec rhesus monkey IL-17 [33] = biological target: T3, rec rhesus monkey IL-17; assay: SPR (BIAcore 2000), mean of run 1 + 2
From the text: as §1, §2

rec rhesus monkey IL-17 [34] = biological target: T3, rec rhesus monkey IL-17; assay: SPR (BIAcore 2000), mean n = 12
From the text: as §1, §2

rec marmoset IL-17 [35] = biological target: T1, rec marmoset IL-17; assay: SPR (BIAcore 2000), 20 nM IL-17, run 1
From the text: as §1, §2

[36] = biological target: T2, rec cynomolgous monkey IL-17; assay: SPR (BIAcore 2000), 20 nM IL-17, run 1
From the text: as §1, §2

rec rhesus monkey IL-17 [37] = biological target: T3, rec rhesus monkey IL-17; assay: SPR (BIAcore 2000), 20 nM IL-17, run 1
From the text: as §1, §2

B1: recombinant human AIN457 (batch KB03303A) (antibody, V domains shown)
VH: EVQLVESGGGLVQPGGSLRLSCAASGFTFSNYWMNWVRQAPGKGLEWVAAINQDGSEKYYVGSVKGRFTISRDNAKNSLYLQMNSLRVEDTAVYYCVRDYYDILTDYYIHYWYFDLWGRGTLVTVSS
VL: not shown
notes: same variable domains as m1; also called AIN457 (KB03303A); NVP-AIN457 (KB03303A)
Work on B1 yielded a Kd (rec marmoset IL-17 [1]) of 1.17 nM, a Kd [2] of 7.17 nM and a Kd (rec rhesus monkey IL-17 [3]) of 5.93 nM. For the same binder, the Kd (rec marmoset IL-17 [4]) was 0.895 nM, the Kd [5] was 2.24 nM and the Kd (rec rhesus monkey IL-17 [6]) was 2.28 nM. The Kd (rec marmoset IL-17 [7]) was 1.13 nM, the Kd [8] was 6.9 nM and the Kd (rec rhesus monkey IL-17 [9]) was 7.04 nM. For the same binder, the Kd [10] was 7.08 nM, the Kd [11] was 1.1 nM and the Kd (rec marmoset IL-17 [12]) was 1.57 nM. The Kd [13] was 8.32 nM, the Kd (rec rhesus monkey IL-17 [14]) was 8.16 nM and the Kd [15] was 6 nM. The Kd (rec marmoset IL-17 [16]) was 1.36 nM, the Kd (rec rhesus monkey IL-17 [17]) was 9.74 nM and the Kd (rec marmoset IL-17 [18]) was 1.21 nM. The Kd (rec rhesus monkey IL-17 [19]) was 11.2 nM, the Kd (rec marmoset IL-17 [20]) was 1.17 nM and the Kd (rec rhesus monkey IL-17 [21]) was 12.4 nM. The Kd (rec rhesus monkey IL-17 [22]) was 13.1 nM, the Kd [23] was 7.41 nM and the Kd (rec marmoset IL-17 [24]) was 1.17 nM. For the same binder, the Kd [25] was 7.89 nM, the Kd (rec rhesus monkey IL-17 [26]) was 6.04 nM and the Kd [27] was 6.26 nM. It also gave a Kd (rec rhesus monkey IL-17 [28]) of 12.3 nM, a Kd (rec marmoset IL-17 [29]) of 1.21 nM and a Kd [30] of 7.34 nM. It also gave a Kd (rec marmoset IL-17 [31]) of 1.67 nM, a Kd [32] of 6 nM and a Kd (rec rhesus monkey IL-17 [33]) of 9 nM. It also gave a Kd (rec rhesus monkey IL-17 [34]) of 8.96 nM, a Kd (rec marmoset IL-17 [35]) of 0.782 nM and a Kd [36] of 4.75 nM. It also gave a Kd (rec rhesus monkey IL-17 [37]) of 7.34 nM.
